Assay results from publication PMC5934362.

Experiments:
Assay in all cases: ITC; 308 K; 50 mM HEPES pH 7.5, 0.5 mM CaCl2, 0.5 mM TCEP; TrxADocScaA variant in the cell, titrated with 28 injections of 10 uL CohScaB5; single-site model
[1] = molecular target: TrxADocScaA V721A (Ruminococcus flavefaciens FD-1)
[2] = molecular target: TrxADocScaA V662 + V721 double mutant (Ruminococcus flavefaciens FD-1)
[3] = molecular target: TrxADocScaA N661A (Ruminococcus flavefaciens FD-1)
[4] = molecular target: TrxADocScaA V666 + V721 double mutant (Ruminococcus flavefaciens FD-1)
[5] = molecular target: TrxADocScaA V662A (Ruminococcus flavefaciens FD-1)
[6] = molecular target: TrxADocScaA V662 + V666 + V721 triple mutant (Ruminococcus flavefaciens FD-1)
[7] = molecular target: TrxADocScaA H722A (Ruminococcus flavefaciens FD-1)
[8] = molecular target: TrxADocScaA N669A (Ruminococcus flavefaciens FD-1)
[9] = molecular target: TrxADocScaA V666A (Ruminococcus flavefaciens FD-1)
[10] = molecular target: TrxADocScaA K670A (Ruminococcus flavefaciens FD-1)
[11] = molecular target: TrxADocScaA wild type (dockerin of primary scaffoldin ScaA fused to N-terminal thioredoxin A) (Ruminococcus flavefaciens FD-1)
[12] = molecular target: TrxADocScaA V662 + V666 double mutant (Ruminococcus flavefaciens FD-1)

Chain of TrxADocScaA wild type (dockerin of primary scaffoldin ScaA fused to N-terminal thioredoxin A) (Ruminococcus flavefaciens FD-1) (main, as listed by the source): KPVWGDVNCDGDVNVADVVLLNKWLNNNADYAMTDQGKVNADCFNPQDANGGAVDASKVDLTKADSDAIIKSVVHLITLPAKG

RfCohScaB5 (fifth cohesin of adaptor scaffoldin ScaB), expressed alone with a C-terminal hexa-histidine tag (domain or fragment)
Ka [1]: 5.1e+08 M⁻¹
dH [1]: -48.7 kcal/mol
stoichiometry N [1]: 0.95
Ka [2]: 6.24e+07 M⁻¹
dH [2]: -64.3 kcal/mol
stoichiometry N [2]: 1.08
Ka [3]: 2.64e+06 M⁻¹
dH [3]: -82.5 kcal/mol
stoichiometry N [3]: 0.98
Ka [4]: 2.25e+07 M⁻¹
dH [4]: -56.5 kcal/mol
stoichiometry N [4]: 1.01
Ka [5]: 4.78e+08 M⁻¹
dH [5]: -68.4 kcal/mol
stoichiometry N [5]: 1.02
Ka [6]: 291000 M⁻¹
dH [6]: -64.8 kcal/mol
stoichiometry N [6]: 1.04
Ka [7]: 2.73e+08 M⁻¹
dH [7]: -72.4 kcal/mol
stoichiometry N [7]: 1
Ka [8]: 3.16e+08 M⁻¹
dH [8]: -73.4 kcal/mol
stoichiometry N [8]: 1.01
Ka [9]: 4.07e+08 M⁻¹
dH [9]: -56.6 kcal/mol
stoichiometry N [9]: 1.02
Ka [10]: 3.67e+08 M⁻¹
dH [10]: -75.1 kcal/mol
stoichiometry N [10]: 1.02
Ka [11]: 4.02e+08 M⁻¹
dH [11]: -66.7 kcal/mol
stoichiometry N [11]: 1.01
Ka [12]: 1.98e+07 M⁻¹
dH [12]: -67.5 kcal/mol
stoichiometry N [12]: 0.98
